Results taken from US20190022241A1 (AbbVie / Abbott, published 2019).

Columns and labels:
human SEZ6L ECD-His = target: T1, human SEZ6L ECD-His (human, UniProt Q9BYH1 29-955); test: ELISA on plates coated with SEZ6L protein
T1 construct: whole entry named
T1 sequence: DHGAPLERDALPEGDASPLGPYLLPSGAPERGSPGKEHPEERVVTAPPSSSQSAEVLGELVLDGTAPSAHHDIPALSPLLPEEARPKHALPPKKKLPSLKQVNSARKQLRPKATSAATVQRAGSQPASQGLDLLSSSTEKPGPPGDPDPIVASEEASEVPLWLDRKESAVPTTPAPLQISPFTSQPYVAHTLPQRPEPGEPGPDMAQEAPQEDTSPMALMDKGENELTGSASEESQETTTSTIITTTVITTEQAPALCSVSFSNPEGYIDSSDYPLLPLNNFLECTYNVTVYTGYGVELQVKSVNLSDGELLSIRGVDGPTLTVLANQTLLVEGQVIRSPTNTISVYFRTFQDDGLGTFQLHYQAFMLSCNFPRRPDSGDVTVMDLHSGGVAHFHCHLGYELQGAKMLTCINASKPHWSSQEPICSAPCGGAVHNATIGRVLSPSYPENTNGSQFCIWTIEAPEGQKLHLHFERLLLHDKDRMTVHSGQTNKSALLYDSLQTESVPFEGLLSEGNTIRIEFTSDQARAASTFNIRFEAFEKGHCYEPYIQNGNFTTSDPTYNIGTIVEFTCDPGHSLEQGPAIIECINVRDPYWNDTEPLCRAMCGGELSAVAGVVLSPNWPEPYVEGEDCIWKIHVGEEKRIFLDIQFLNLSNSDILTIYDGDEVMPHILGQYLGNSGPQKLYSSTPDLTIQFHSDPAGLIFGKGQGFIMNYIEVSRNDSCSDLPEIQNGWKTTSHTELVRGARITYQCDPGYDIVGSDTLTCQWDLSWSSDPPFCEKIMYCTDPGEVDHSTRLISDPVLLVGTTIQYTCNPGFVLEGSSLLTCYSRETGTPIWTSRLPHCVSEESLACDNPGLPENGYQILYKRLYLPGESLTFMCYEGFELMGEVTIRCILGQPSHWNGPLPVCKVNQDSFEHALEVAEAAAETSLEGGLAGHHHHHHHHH
Description: To determine cross reactivity to family member proteins, SEZ6L and SEZ6L2, an ELISA-based assay was used. Plates were coated with SEZ6, SEZ6L, or SEZ6L2 proteins at 0.2 μg/mL in PBS overnight. After washing with PBS containing 0.05% (v/v) Tween 20 (PB ST), the wells were blocked with 2% (w/v) BSA in PBS (PB SA), 100 μL/well for 1 hour at room temperature. Antibody was then added at 1 μg/mL in 100 μL PBSA for 1 hour at room temperature. After washing with PBST, 100 μL/well HRP-labeled goat anti-mouse IgG diluted 1:2,000 in PBSA for 1 hour at room temperature. […] After developing, an equal volume of 2M H₂SO₄ was added to stop substrate development and analyzed by spectrophotometer at OD 450.

human SEZ6L2 ECD-His [1] = target: T2, human SEZ6L2 ECD-His (human, UniProt Q6UXD5 28-843); test: mark of Table 5 for antibodies that bind SEZ6L2
T2 construct: whole entry named

[2] = target: T3, mouse SEZ6 on Neuro2a cells (mouse, UniProt Q7TSK2 20-991); test: flow cytometry, Neuro2a cells, 5 ug/mL antibody
T3 construct: endogenous on Neuro2a cells; also called murine SEZ6; mSEZ6
Description: (§1) Briefly 1×10⁵ cells per well of Neuro2a, RIN-5mF, or yeast displaying cynomolgus SEZ6 cells were incubated for 30 minutes with 50 μL PBS (2% FCS) buffer with 5 μg/mL antibody. […] After incubating for 15 minutes cells were washed twice with the PBS buffer and re-suspended in the same with DAPI for flow cytometry analysis of Neuro2a and Rin-m5F or buffer without DAPI for flow cytometric analysis of yeast cells with cSEZ6.

rSEZ6-ECD-His = target: T4, rSEZ6-ECD-His (rat, UniProt Q7TSK2 20-922 (mouse entry)); test: bio-layer interferometry (ForteBio RED) or surface plasmon resonance (Biacore 2000) on rat SEZ6-His; the table does not say which; column Rat XR (Kd, nM)
T4 construct: the whole entry is named; also called rat recombinant SEZ6-His; rat SEZ6 ECD
T4 chain: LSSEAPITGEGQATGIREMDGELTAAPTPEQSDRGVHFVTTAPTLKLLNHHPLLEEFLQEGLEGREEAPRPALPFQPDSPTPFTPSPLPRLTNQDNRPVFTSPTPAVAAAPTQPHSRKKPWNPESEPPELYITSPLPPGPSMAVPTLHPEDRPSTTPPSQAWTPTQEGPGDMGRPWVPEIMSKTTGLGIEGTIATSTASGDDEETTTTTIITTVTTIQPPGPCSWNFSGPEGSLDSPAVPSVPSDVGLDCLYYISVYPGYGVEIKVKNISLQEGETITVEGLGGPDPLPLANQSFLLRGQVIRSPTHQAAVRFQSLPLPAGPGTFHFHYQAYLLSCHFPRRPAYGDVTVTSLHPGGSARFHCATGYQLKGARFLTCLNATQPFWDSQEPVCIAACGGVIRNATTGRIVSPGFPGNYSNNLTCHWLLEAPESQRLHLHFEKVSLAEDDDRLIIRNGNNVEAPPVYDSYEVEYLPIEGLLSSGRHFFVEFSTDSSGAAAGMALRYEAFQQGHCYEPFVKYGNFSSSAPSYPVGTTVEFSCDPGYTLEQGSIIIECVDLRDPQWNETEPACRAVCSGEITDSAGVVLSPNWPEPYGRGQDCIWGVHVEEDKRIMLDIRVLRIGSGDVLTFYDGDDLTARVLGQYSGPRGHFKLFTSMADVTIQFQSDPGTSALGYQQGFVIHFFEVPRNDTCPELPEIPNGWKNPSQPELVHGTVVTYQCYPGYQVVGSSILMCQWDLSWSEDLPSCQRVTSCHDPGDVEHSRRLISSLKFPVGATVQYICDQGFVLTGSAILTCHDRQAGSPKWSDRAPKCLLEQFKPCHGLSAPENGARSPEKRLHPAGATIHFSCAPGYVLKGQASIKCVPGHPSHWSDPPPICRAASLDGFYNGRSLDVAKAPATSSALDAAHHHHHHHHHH
Excerpt: (§2) Various methods were used to analyze the binding and immunochemical characteristics of selected SEZ6 modulators generated as set forth above.

[3] = target: T5, rat SEZ6 on RIN-m5F cells (rat, UniProt Q7TSK2 20-991 (mouse entry)); test: flow cytometry, RIN-m5F cells, 5 ug/mL antibody
T5 construct: endogenous on RIN-m5F cells; also called rSEZ6
T5 chain: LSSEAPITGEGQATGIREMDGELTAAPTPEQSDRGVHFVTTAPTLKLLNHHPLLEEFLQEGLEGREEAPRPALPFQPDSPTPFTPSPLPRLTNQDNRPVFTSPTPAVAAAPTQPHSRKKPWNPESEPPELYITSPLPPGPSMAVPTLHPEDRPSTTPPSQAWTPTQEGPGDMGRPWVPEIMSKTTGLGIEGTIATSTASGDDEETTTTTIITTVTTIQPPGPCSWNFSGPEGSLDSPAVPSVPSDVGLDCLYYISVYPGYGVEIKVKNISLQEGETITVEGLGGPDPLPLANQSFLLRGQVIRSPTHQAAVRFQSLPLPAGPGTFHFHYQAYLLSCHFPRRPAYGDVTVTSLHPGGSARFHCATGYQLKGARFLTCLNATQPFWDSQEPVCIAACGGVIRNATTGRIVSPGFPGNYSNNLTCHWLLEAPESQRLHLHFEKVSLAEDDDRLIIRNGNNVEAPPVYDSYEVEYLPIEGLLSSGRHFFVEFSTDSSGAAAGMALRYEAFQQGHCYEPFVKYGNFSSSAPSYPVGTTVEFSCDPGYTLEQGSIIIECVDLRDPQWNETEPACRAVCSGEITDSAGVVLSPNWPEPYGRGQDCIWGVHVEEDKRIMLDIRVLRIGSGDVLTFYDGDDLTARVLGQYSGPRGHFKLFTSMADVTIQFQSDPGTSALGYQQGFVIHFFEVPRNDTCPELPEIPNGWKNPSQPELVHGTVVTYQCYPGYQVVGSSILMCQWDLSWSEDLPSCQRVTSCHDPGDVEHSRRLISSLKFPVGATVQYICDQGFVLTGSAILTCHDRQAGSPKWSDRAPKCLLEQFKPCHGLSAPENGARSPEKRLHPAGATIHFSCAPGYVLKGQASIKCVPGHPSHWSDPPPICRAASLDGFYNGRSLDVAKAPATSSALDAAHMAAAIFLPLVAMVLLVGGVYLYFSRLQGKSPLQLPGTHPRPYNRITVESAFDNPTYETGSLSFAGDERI
Description: as §1

hSEZ6-ECD-His = target: T6, hSEZ6-ECD-His (human, UniProt Q53EL9 20-925); test: bio-layer interferometry (ForteBio RED) or surface plasmon resonance (Biacore 2000) on human SEZ6-His; the table does not say which; column Hu Affinity (Kd, nM)
T6 construct: the whole entry is named; also called recombinant SEZ6-His; human recombinant SEZ6-His
Excerpt: as §2

[4] = target: T3, mouse SEZ6 on Neuro2a cells; test: flow cytometry on Neuro2a cells expressing mouse SEZ6
Description: as §1

human SEZ6L2 ECD-His [5] = target: T2, human SEZ6L2 ECD-His; test: ELISA on plates coated with SEZ6L2 protein
[6] = target: T5, rat SEZ6 on RIN-m5F cells; test: flow cytometry on RIN-m5F cells expressing rat SEZ6, verified by BLI or SPR on rat SEZ6-His
Description: as §1
To verify the cross reactivity data above for rat SEZ6 and to determine the affinity and kinetic constants kₒₙ and koff of the selected effectors, either bio-layer interferometry analysis on a ForteBio RED (ForteBio, Inc.) or surface plasmon resonance on a Biacore 2000 (GE Healthcare) were conducted.

[7] = target: T7, extracellular domain of cynomolgus SEZ6 on yeast (cynomolgus, UniProt Q53EL9 23-925 (human entry)); test: flow cytometry, yeast displaying cynomolgus SEZ6 ECD, 5 ug/mL antibody
T7 construct: yeast display; the whole entry is named; also called cSEZ6; cynomolgus SEZ6 ECD
T7 chain: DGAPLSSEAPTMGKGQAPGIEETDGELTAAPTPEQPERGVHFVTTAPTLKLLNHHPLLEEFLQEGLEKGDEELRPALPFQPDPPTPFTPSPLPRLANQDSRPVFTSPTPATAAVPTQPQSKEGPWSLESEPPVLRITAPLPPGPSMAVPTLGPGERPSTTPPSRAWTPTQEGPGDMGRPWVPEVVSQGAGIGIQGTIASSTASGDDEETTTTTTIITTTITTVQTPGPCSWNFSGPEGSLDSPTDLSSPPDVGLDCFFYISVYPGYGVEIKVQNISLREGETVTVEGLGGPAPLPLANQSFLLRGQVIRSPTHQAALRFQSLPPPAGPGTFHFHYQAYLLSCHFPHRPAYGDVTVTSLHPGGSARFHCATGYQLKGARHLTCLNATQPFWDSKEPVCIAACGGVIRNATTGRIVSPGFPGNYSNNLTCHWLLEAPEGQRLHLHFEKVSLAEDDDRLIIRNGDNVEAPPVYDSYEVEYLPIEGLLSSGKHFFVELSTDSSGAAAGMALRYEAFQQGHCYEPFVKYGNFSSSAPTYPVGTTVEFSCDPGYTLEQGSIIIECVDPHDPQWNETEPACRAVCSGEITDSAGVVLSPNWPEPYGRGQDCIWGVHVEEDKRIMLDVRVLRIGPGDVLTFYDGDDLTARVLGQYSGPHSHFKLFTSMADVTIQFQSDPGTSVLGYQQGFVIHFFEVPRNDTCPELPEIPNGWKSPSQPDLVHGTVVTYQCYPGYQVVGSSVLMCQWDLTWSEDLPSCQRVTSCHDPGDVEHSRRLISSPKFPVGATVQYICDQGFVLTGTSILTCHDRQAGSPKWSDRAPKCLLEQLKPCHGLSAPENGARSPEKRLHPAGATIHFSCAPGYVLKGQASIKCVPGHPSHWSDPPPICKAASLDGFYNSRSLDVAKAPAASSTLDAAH
Description: as §1

T2 sequence (Q6UXD5 other isoform, or with tags, fused parts or gaps): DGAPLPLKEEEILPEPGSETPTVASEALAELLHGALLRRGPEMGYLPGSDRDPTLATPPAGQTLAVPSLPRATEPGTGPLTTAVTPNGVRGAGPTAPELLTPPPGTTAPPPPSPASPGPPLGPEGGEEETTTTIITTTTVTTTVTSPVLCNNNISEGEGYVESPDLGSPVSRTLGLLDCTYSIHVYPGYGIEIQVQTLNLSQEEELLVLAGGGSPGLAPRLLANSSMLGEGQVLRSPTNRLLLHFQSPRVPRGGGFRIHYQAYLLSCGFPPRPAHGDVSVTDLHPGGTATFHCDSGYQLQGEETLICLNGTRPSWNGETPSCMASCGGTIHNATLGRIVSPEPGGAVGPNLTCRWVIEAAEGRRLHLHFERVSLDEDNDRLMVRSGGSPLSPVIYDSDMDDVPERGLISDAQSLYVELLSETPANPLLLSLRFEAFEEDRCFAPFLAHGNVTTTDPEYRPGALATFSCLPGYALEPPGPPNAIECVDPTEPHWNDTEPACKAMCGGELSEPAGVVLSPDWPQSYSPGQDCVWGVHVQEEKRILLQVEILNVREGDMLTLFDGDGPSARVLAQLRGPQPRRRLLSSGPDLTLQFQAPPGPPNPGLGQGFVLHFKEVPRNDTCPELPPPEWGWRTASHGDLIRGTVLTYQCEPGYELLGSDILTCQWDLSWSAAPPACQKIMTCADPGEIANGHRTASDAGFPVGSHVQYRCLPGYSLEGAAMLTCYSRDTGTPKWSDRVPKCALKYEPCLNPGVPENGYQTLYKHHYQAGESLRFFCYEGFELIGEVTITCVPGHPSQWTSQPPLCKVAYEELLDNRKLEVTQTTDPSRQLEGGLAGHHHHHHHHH

B1: SC17.6 (antibody, V domains shown)
VH: EVQLQQSGPELMKPGASVKMSCKASGYTFTDYNMYWVKQNQGKSLEWIGEINPNNGGTAYNQKFRGKATLTVDKSSSTAYMELRSLTSEDSAVYYCARYDKGFDYWGQGTTLTVSS
VL: DIQMTQSPASLSVSVGETVTITCRASANINSNLVWYQQKQGKSPQLLVYAATNLADGVPSRFSGSGSGTQYSLKINSLQSEDFGNYYCQHFWGTPRTFGGGTKLEIK
notes: murine mAb; also called SC17.16 (duplicate)
binding result (human SEZ6L ECD-His): no binding (tested: 1 µg/mL) | binding result (human SEZ6L2 ECD-His [1]): binds | binding result [2]: binds | Kd (rSEZ6-ECD-His): < 1 nM | binding result [3]: binds | Kd (hSEZ6-ECD-His): < 1 nM

B2: SC17.28 (antibody, V domains shown)
VH: QVHLPQSRPELVKPGASVKISCKASGYGFTRSYIHWVKQRPGQGLEWIGYISSGSGGTTYNQKFKGKASLTADNPSSTAYMHLSSLTSEDSAIYFCARGGVRYFDVWGAGTTVTVSS
VL: DILLTQSPAILSVSPGEGVSFSCRASQSIGTSIHWYQQRTNGSPRLLIKYASESISGIPSRFSGSGSGTDFTLRINSLESEDIADYYCQQSNSWPLTFGAGTKLELK
notes: murine mAb
binding result (human SEZ6L ECD-His): no binding (tested: 1 µg/mL) | binding result (human SEZ6L2 ECD-His [1]): binds | Kd (rSEZ6-ECD-His): 31 nM | binding result [3]: binds | Kd (hSEZ6-ECD-His): 22.1 nM | binding result [4]: no binding (tested: 5 µg/mL)

B3: SC17.19 (antibody, V domains shown)
VH: DVQLQESGPGLVKPSQSLSVTCTVTGYSITSSYTWNWIRQFPGNKLEWMGYIHYSGSTNYNPSLRSRISITRDTSKNQFFLQLNSVTTEDTATYYCARSRYYYDAYGFAYWGQGTLVTVSA
VL: DIVLTQSPASLAVSLGQRAAISCKPSQSVDYDGDSYMNWYQQKPGQPPKLLIYAASNLESGIPARFSGSGSGTDFTLNIHPVEEEDAATYYCHQINDDPWTFGGGTKLK
notes: murine mAb
binding result (human SEZ6L ECD-His): no binding (tested: 1 µg/mL) | binding result (human SEZ6L2 ECD-His [1]): binds | binding result [2]: binds | binding result [3]: binds | Kd (hSEZ6-ECD-His): 5.3 nM

B4: SC17.24 (antibody, V domains shown)
VH: QVQLQQSDAELVKPGASVKISCKVSGYTFTDHTIHWMKQRPEQGLEWIGYIYPRDGSTKYNEEFKGKATLTADKSSSTAYMQLNSLTSEDSAVYFCARSYSNYFDYWGQGTTLTVSS
VL: DIVMSQSPSSLAVSVGEKVTMSCKSSQSLLYSSNQKSYLAWYQQKPGQSPKLLIYWASTRESGVPDRFTGSGSGTDFTLTISSVQAEDLAVYYCKQSYNLRTFGGGTKLEIK
notes: murine mAb
binding result (human SEZ6L ECD-His): no binding (tested: 1 µg/mL) | binding result [2]: binds | binding result (human SEZ6L2 ECD-His [5]): no binding (tested: 1 µg/mL) | Kd (hSEZ6-ECD-His): 5.1 nM | binding result [6]: no binding (tested: 5 µg/mL) | binding result [7]: binds
